The record followed here is paper PMC9715652, “Structural insights into mechanism and specificity of the plant protein O-fucosyltransferase SPINDLY” (Nature Communications, 2022).

Series [1] in a line: in vitro fucosylation of DELLA1–205, AAL lectin blot. Conditions: glycan lost; control: wild type SPY.
Series [2] deals with the molecule itself. Briefly: SEC-MALS; ~500 μg loaded on Superdex 200 increase 10/300 connected to a HELEOS multi-angle light scattering instrument; 20 mM Tris pH 7.9, 300 mM NaCl, 0.5 mM TCEP.
Series [3] deals with the molecule itself. Kind of series: SEC; Superdex 200 Increase 10/300 GL, 0.5 mL injected; 50 mM Tris pH 7.9, 300 mM NaCl, 0.5 mM TCEP, 2 mM benzamidine; samples incubated at 4 °C for 6 h; peak fractions on SDS-PAGE.
A further series in a line: gel filtration. Conditions: glycan gained; control: wild type unmodified SPY.

B1: SPINDLY (SPY): S21A (protein)
parent chain: MVGLEDDTERERSPVVENGFSNGSRSSSSSAGVLSPSRKVTQGNDTLSYANILRARNKFADALALYEAMLEKDSKNVEAHIGKGICLQTQNKGNLAFDCFSEAIRLDPHNACALTHCGILHKEEGRLVEAAESYQKALMADASYKPAAECLAIVLTDLGTSLKLAGNTQEGIQKYYEALKIDPHYAPAYYNLGVVYSEMMQYDNALSCYEKAALERPMYAEAYCNMGVIYKNRGDLEMAITCYERCLAVSPNFEIAKNNMAIALTDLGTKVKLEGDVTQGVAYYKKALYYNWHYADAMYNLGVAYGEMLKFDMAIVFYELAFHFNPHCAEACNNLGVLYKDRDNLDKAVECYQMALSIKPNFAQSLNNLGVVYTVQGKMDAAASMIEKAILANPTYAEAFNNLGVLYRDAGNITMAIDAYEECLKIDPDSRNAGQNRLLAMNYINEGLDDKLFEAHRDWGWRFTRLHPQYTSWDNLKDPERPITIGYISPDFFTHSVSYFIEAPLTHHDYTKYKVVVYSAVVKADAKTYRFRDKVLKKGGVWKDIYGIDEKKIASMVREDKIDILVELTGHTANNKLGTMACRPAPVQVTWIGYPNTTGLPTVDYRITDSLADPPDTKQKQVEELVRLPDCFLCYTPSPEAGPVCPTPALSNGFVTFGSFNNLAKITPKVLQVWARILCAVPNSRLVVKCKPFCCDSIRQRFLTTLEQLGLESKRVDLLPLILFNHDHMQAYSLMDISLDTFPYAGTTTTCESLYMGVPCVTMAGSVHAHNVGVSLLTKVGLGHLVAKNEDEYVQLSVDLASDVTALSKLRMSLRDLMAGSPVCNGPSFAVGLESAYRNMWKKYCKGEVPSLRRMEMLQKEVHDDPLISKDLGPSRVSVTGEATPSLKANGSAPVPSSLPTQSPQLSKRMDSTS
Regarding B1, the enzymatic_activity entry in series [1] is recorded as “no change”.

B2: Arabidopsis SPINDLY (SPY), wild type, full-length (enzyme, Arabidopsis thaliana, UniProt Q96301 1-914, looked up)
chain: MVGLEDDTERERSPVVENGFSNGSRSSSSSAGVLSPSRKVTQGNDTLSYANILRARNKFADALALYEAMLEKDSKNVEAHIGKGICLQTQNKGNLAFDCFSEAIRLDPHNACALTHCGILHKEEGRLVEAAESYQKALMADASYKPAAECLAIVLTDLGTSLKLAGNTQEGIQKYYEALKIDPHYAPAYYNLGVVYSEMMQYDNALSCYEKAALERPMYAEAYCNMGVIYKNRGDLEMAITCYERCLAVSPNFEIAKNNMAIALTDLGTKVKLEGDVTQGVAYYKKALYYNWHYADAMYNLGVAYGEMLKFDMAIVFYELAFHFNPHCAEACNNLGVLYKDRDNLDKAVECYQMALSIKPNFAQSLNNLGVVYTVQGKMDAAASMIEKAILANPTYAEAFNNLGVLYRDAGNITMAIDAYEECLKIDPDSRNAGQNRLLAMNYINEGLDDKLFEAHRDWGWRFTRLHPQYTSWDNLKDPERPITIGYISPDFFTHSVSYFIEAPLTHHDYTKYKVVVYSAVVKADAKTYRFRDKVLKKGGVWKDIYGIDEKKIASMVREDKIDILVELTGHTANNKLGTMACRPAPVQVTWIGYPNTTGLPTVDYRITDSLADPPDTKQKQVEELVRLPDCFLCYTPSPEAGPVCPTPALSNGFVTFGSFNNLAKITPKVLQVWARILCAVPNSRLVVKCKPFCCDSIRQRFLTTLEQLGLESKRVDLLPLILFNHDHMQAYSLMDISLDTFPYAGTTTTCESLYMGVPCVTMAGSVHAHNVGVSLLTKVGLGHLVAKNEDEYVQLSVDLASDVTALSKLRMSLRDLMAGSPVCNGPSFAVGLESAYRNMWKKYCKGEVPSLRRMEMLQKEVHDDPLISKDLGPSRVSVTGEATPSLKANGSAPVPSSLPTQSPQLSKRMDSTS
notes: Dimer in solution by SEC-MALS; also called wild type SPY; SPY^WT; not shown: His6, N-terminal, cleaved; SUMO, N-terminal, cleaved
For the protein B2, the “stoichiometry N” value in series [2] was 2.

B3: SPINDLY (SPY): S24A (protein)
parent chain: MVGLEDDTERERSPVVENGFSNGSRSSSSSAGVLSPSRKVTQGNDTLSYANILRARNKFADALALYEAMLEKDSKNVEAHIGKGICLQTQNKGNLAFDCFSEAIRLDPHNACALTHCGILHKEEGRLVEAAESYQKALMADASYKPAAECLAIVLTDLGTSLKLAGNTQEGIQKYYEALKIDPHYAPAYYNLGVVYSEMMQYDNALSCYEKAALERPMYAEAYCNMGVIYKNRGDLEMAITCYERCLAVSPNFEIAKNNMAIALTDLGTKVKLEGDVTQGVAYYKKALYYNWHYADAMYNLGVAYGEMLKFDMAIVFYELAFHFNPHCAEACNNLGVLYKDRDNLDKAVECYQMALSIKPNFAQSLNNLGVVYTVQGKMDAAASMIEKAILANPTYAEAFNNLGVLYRDAGNITMAIDAYEECLKIDPDSRNAGQNRLLAMNYINEGLDDKLFEAHRDWGWRFTRLHPQYTSWDNLKDPERPITIGYISPDFFTHSVSYFIEAPLTHHDYTKYKVVVYSAVVKADAKTYRFRDKVLKKGGVWKDIYGIDEKKIASMVREDKIDILVELTGHTANNKLGTMACRPAPVQVTWIGYPNTTGLPTVDYRITDSLADPPDTKQKQVEELVRLPDCFLCYTPSPEAGPVCPTPALSNGFVTFGSFNNLAKITPKVLQVWARILCAVPNSRLVVKCKPFCCDSIRQRFLTTLEQLGLESKRVDLLPLILFNHDHMQAYSLMDISLDTFPYAGTTTTCESLYMGVPCVTMAGSVHAHNVGVSLLTKVGLGHLVAKNEDEYVQLSVDLASDVTALSKLRMSLRDLMAGSPVCNGPSFAVGLESAYRNMWKKYCKGEVPSLRRMEMLQKEVHDDPLISKDLGPSRVSVTGEATPSLKANGSAPVPSSLPTQSPQLSKRMDSTS
With B3, the enzymatic_activity entry in series [1] is on record as “no change”.

B4: engineered Arabidopsis SPY^C645S (enzyme, Arabidopsis thaliana, UniProt Q96301 1-914, looked up)
chain: MVGLEDDTERERSPVVENGFSNGSRSSSSSAGVLSPSRKVTQGNDTLSYANILRARNKFADALALYEAMLEKDSKNVEAHIGKGICLQTQNKGNLAFDCFSEAIRLDPHNACALTHCGILHKEEGRLVEAAESYQKALMADASYKPAAECLAIVLTDLGTSLKLAGNTQEGIQKYYEALKIDPHYAPAYYNLGVVYSEMMQYDNALSCYEKAALERPMYAEAYCNMGVIYKNRGDLEMAITCYERCLAVSPNFEIAKNNMAIALTDLGTKVKLEGDVTQGVAYYKKALYYNWHYADAMYNLGVAYGEMLKFDMAIVFYELAFHFNPHCAEACNNLGVLYKDRDNLDKAVECYQMALSIKPNFAQSLNNLGVVYTVQGKMDAAASMIEKAILANPTYAEAFNNLGVLYRDAGNITMAIDAYEECLKIDPDSRNAGQNRLLAMNYINEGLDDKLFEAHRDWGWRFTRLHPQYTSWDNLKDPERPITIGYISPDFFTHSVSYFIEAPLTHHDYTKYKVVVYSAVVKADAKTYRFRDKVLKKGGVWKDIYGIDEKKIASMVREDKIDILVELTGHTANNKLGTMACRPAPVQVTWIGYPNTTGLPTVDYRITDSLADPPDTKQKQVEELVRLPDCFLCYTPSPEAGPVSPTPALSNGFVTFGSFNNLAKITPKVLQVWARILCAVPNSRLVVKCKPFCCDSIRQRFLTTLEQLGLESKRVDLLPLILFNHDHMQAYSLMDISLDTFPYAGTTTTCESLYMGVPCVTMAGSVHAHNVGVSLLTKVGLGHLVAKNEDEYVQLSVDLASDVTALSKLRMSLRDLMAGSPVCNGPSFAVGLESAYRNMWKKYCKGEVPSLRRMEMLQKEVHDDPLISKDLGPSRVSVTGEATPSLKANGSAPVPSSLPTQSPQLSKRMDSTS
notes: SPINDLY (SPY), Arabidopsis thaliana, At3g11540, full-length with C645S; Crystallised with GDP; residues 848-914 and most of 1-43 are invisible in the structure; also called SPY (in the SPY/GDP complex structure); catalytic SPY; not shown: His6, N-terminal, cleaved; SUMO, N-terminal, cleaved
B4: the “stoichiometry N” value in series [2] worked out at 2.

B5: self-fucosylated SPY (enzyme, Arabidopsis thaliana, UniProt Q96301 1-914, looked up)
chain: MVGLEDDTERERSPVVENGFSNGSRSSSSSAGVLSPSRKVTQGNDTLSYANILRARNKFADALALYEAMLEKDSKNVEAHIGKGICLQTQNKGNLAFDCFSEAIRLDPHNACALTHCGILHKEEGRLVEAAESYQKALMADASYKPAAECLAIVLTDLGTSLKLAGNTQEGIQKYYEALKIDPHYAPAYYNLGVVYSEMMQYDNALSCYEKAALERPMYAEAYCNMGVIYKNRGDLEMAITCYERCLAVSPNFEIAKNNMAIALTDLGTKVKLEGDVTQGVAYYKKALYYNWHYADAMYNLGVAYGEMLKFDMAIVFYELAFHFNPHCAEACNNLGVLYKDRDNLDKAVECYQMALSIKPNFAQSLNNLGVVYTVQGKMDAAASMIEKAILANPTYAEAFNNLGVLYRDAGNITMAIDAYEECLKIDPDSRNAGQNRLLAMNYINEGLDDKLFEAHRDWGWRFTRLHPQYTSWDNLKDPERPITIGYISPDFFTHSVSYFIEAPLTHHDYTKYKVVVYSAVVKADAKTYRFRDKVLKKGGVWKDIYGIDEKKIASMVREDKIDILVELTGHTANNKLGTMACRPAPVQVTWIGYPNTTGLPTVDYRITDSLADPPDTKQKQVEELVRLPDCFLCYTPSPEAGPVCPTPALSNGFVTFGSFNNLAKITPKVLQVWARILCAVPNSRLVVKCKPFCCDSIRQRFLTTLEQLGLESKRVDLLPLILFNHDHMQAYSLMDISLDTFPYAGTTTTCESLYMGVPCVTMAGSVHAHNVGVSLLTKVGLGHLVAKNEDEYVQLSVDLASDVTALSKLRMSLRDLMAGSPVCNGPSFAVGLESAYRNMWKKYCKGEVPSLRRMEMLQKEVHDDPLISKDLGPSRVSVTGEATPSLKANGSAPVPSSLPTQSPQLSKRMDSTS
modifications: O-fucose by self-fucosylation (major sites S21 and S24 by the paper's mutagenesis)
notes: SPINDLY (SPY), Arabidopsis thaliana, At3g11540, self-fucosylated sample run on gel filtration; Fucosylation of the sample was checked by western blotting with biotinylated AAL; also called SPY with fucosylation modification; source: E. coli BL21 (DE3), purified; self-fucosylated sample; not shown: His6, N-terminal, cleaved; SUMO, N-terminal, cleaved
B5: the “stoichiometry N” value in series [3] worked out at 2.

B6: SPINDLY (SPY): self-fucosylated SPY (protein)
parent chain: MVGLEDDTERERSPVVENGFSNGSRSSSSSAGVLSPSRKVTQGNDTLSYANILRARNKFADALALYEAMLEKDSKNVEAHIGKGICLQTQNKGNLAFDCFSEAIRLDPHNACALTHCGILHKEEGRLVEAAESYQKALMADASYKPAAECLAIVLTDLGTSLKLAGNTQEGIQKYYEALKIDPHYAPAYYNLGVVYSEMMQYDNALSCYEKAALERPMYAEAYCNMGVIYKNRGDLEMAITCYERCLAVSPNFEIAKNNMAIALTDLGTKVKLEGDVTQGVAYYKKALYYNWHYADAMYNLGVAYGEMLKFDMAIVFYELAFHFNPHCAEACNNLGVLYKDRDNLDKAVECYQMALSIKPNFAQSLNNLGVVYTVQGKMDAAASMIEKAILANPTYAEAFNNLGVLYRDAGNITMAIDAYEECLKIDPDSRNAGQNRLLAMNYINEGLDDKLFEAHRDWGWRFTRLHPQYTSWDNLKDPERPITIGYISPDFFTHSVSYFIEAPLTHHDYTKYKVVVYSAVVKADAKTYRFRDKVLKKGGVWKDIYGIDEKKIASMVREDKIDILVELTGHTANNKLGTMACRPAPVQVTWIGYPNTTGLPTVDYRITDSLADPPDTKQKQVEELVRLPDCFLCYTPSPEAGPVCPTPALSNGFVTFGSFNNLAKITPKVLQVWARILCAVPNSRLVVKCKPFCCDSIRQRFLTTLEQLGLESKRVDLLPLILFNHDHMQAYSLMDISLDTFPYAGTTTTCESLYMGVPCVTMAGSVHAHNVGVSLLTKVGLGHLVAKNEDEYVQLSVDLASDVTALSKLRMSLRDLMAGSPVCNGPSFAVGLESAYRNMWKKYCKGEVPSLRRMEMLQKEVHDDPLISKDLGPSRVSVTGEATPSLKANGSAPVPSSLPTQSPQLSKRMDSTS
For the protein B6, in the series “gel filtration”, the oligomerisation result was “no change”.
